Source: PMC6463701

Assays:
[1] = molecular target: fluorophore-labeled ubiquitin G76C (BODIPY TMR C5-maleimide); test: fluorescence polarisation; 50 nM BODIPY TMR-labelled ubiquitin G76C, E6AP construct titrated (C-lobe 0-500 μM); room temperature; 20 mM HEPES pH 7.2, 200 mM NaCl, 1 mM TCEP, 0.01% Triton X-100; single-site binding model; apparent KD
[2] = molecular target: Cys820 (UniProt position 843, PTSHTCFNVLL); test: chemical modification (stopped-flow kinetics, UV-vis); settings: 10 °C; 100 mM NaCl; 20 mM sodium acetate, 20 mM sodium phosphate, 20 mM Tris or 20 mM CAPSO (depending on pH); 1 mM EDTA; isolated C-lobe, free (no ubiquitin), reduced thiol, folded

E6AP HECT domain (residues 495-852), wild type, sequence (Q05086 518-875): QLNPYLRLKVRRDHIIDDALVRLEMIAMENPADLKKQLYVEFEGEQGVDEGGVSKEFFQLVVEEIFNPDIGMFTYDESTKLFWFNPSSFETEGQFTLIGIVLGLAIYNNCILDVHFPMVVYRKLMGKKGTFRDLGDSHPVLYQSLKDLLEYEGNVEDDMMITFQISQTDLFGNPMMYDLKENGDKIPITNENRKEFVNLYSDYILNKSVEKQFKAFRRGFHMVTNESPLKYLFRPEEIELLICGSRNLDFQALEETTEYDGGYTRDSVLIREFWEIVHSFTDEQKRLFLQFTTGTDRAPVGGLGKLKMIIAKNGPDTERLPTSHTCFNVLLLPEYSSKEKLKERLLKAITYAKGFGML
E6AP N-lobe (isolated), sequence (Q05086 518-875): as above
E6AP C-lobe (residues 741-852), sequence (Q05086 764-875): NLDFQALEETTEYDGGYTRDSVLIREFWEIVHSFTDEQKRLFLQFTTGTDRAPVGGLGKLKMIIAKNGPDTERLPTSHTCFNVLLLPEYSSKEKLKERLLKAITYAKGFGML

Substance | Kd [1] | pKa [2]
E6AP (UBE3A) HECT domain C-lobe, Delta4 variant (Homo sapiens; del849-852) |  | 8.7 ± 0.1
E6AP C-lobe (residues 741-852) (from UniProt Q05086-2 741-852) (domain or fragment) | 400 µM | 
E6AP (UBE3A) HECT domain C-lobe, wild type (Homo sapiens) |  | 8.7 ± 0.1

The remaining substances from weak to strong by Kd [1], led by results:

Kd [1] | Substance | pKa [2]
120 µM | E6AP HECT domain F665D (from UniProt Q05086-2 495-852) (domain or fragment) | 
110 µM | E6AP HECT domain I564D/F583D (from UniProt Q05086-2 495-852) (domain or fragment) | 
83 µM | E6AP HECT domain (residues 495-852), wild type (from UniProt Q05086-2 495-852) (domain or fragment) | 
70 µM | E6AP N-lobe (isolated) (from UniProt Q05086-2 495-852) (domain or fragment) | 
